# Results reported in patent US20100221240A1, “Chemically Modified Peptide Analogs” (FRAUNHOFER-GESELLSCHAFT ZUR FORDERUNG DER ANGEWANDTEN …, priority 2004, published 2010).
# How the values were obtained:
# [1] = Nyholm B. et al. 2001; cited from earlier work
# [2] = Sedimentation test (solubility; BCA protein determination of pellet and supernatant); assay type: physicochemical; details: pH 7.4
# Description: a) The sedimentation test was used to investigate the solubility of the analogs compared to IAPP. The quantity of precipitated or soluble peptide was determined as a function of time. In one typical experiment, first a peptide solution at a given concentration (1, 10, or 100 μM) in 10 mM sodium phosphate buffer, pH 7.4 was prepared. Aliquots of this solution were centrifuged at specified times (20200 g, 20 min), and precipitated protein in the pellet and supernatant was quantified using the bicinchonic acid (BCA) protein determination assay. FIG. 1 illustrates several results from this test. […] After 20 h IAPP was completely precipitated; in contrast, the N-methylated IAPP-LA [sic; IAPP-AL], IAPP-GI, and IAPP-AF [sic; IAPP-FA] analogs remained soluble over 14 days, even at a concentration of 100 μM. IAPP completely precipitated after only 2 h under the latter-referenced conditions (100 μM).
# [3] = molecular target: T1, IAPP receptor on MCF-7 cells (Homo sapiens, UniProt P30988); test: Stability in solution: preservation of AC activation potential (hormonal activity) on storage; assay type: cell-based; details: 250 μM or 1 mg/mL, sodium phosphate pH 7.4, RT, 4 days; 1 μM end concentration on cells
# T1 construct: Specific IAPP receptors are expressed in the MCF-7 cell line; endogenous in cells; host or cells: MCF-7 (human breast cancer cells)
# T1 sequence (P30988 25-474): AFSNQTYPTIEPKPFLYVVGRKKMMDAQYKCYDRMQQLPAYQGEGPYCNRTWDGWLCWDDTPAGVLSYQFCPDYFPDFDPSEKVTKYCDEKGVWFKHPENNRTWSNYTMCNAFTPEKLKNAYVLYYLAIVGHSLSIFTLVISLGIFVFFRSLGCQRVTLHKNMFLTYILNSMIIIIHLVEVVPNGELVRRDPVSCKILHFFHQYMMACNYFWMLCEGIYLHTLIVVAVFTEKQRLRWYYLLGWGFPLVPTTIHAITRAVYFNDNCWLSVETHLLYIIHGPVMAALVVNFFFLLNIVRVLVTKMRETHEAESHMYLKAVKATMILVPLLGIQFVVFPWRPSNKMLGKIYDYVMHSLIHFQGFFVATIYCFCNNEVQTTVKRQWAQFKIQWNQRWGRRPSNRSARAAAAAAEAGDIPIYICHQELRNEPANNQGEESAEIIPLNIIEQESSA
# Description: To [determine] the potential applicability of the analogs as an IAPP or pramlintide replacement in the treatment of diabetes and/or other diseases, the stability of the solutions of the analogs and thus their hormonal activity in comparison to readily aggregating IAPP was investigated. In one typical assay, aqueous solutions of IAPP, IAPP-AL, IAPP-GI, or 1:1 mixtures of the analogs with IAPP (250 μM or 1 mg/mL) in […] sodium phosphate, pH 7.4, were used at RT and incubated for 4 days. The AC activation potential of these solutions was determined at various times, e.g., at times 0, 48 h, and 96 h, by means of the AC activation assay described above (end concentration in the cells was 1 μM, corresponding to maximum activation) (FIG. 9).
# [4] = EM analysis of peptide solutions for fibriles; assay type: physicochemical; details: 5 μM, 10 mM sodium phosphate buffer pH 7.4, 1% HFIP, approximately 20 h at RT
# Description: c) For EM analyses, 5-μM solutions of the analogs versus IAPP (in 10 mM sodium phosphate buffer, pH 7.4, containing 1% HFIP) were incubated for approximately 20 h at RT. 10 μL of the solutions was then applied to EM plates, and after dyeing with 1% uranyl acetate as described in Kayed, J. Mol. Biol. (1999) 287, 781-796 was analyzed for the presence of fibriles by means of EM.
# [5] = ThT binding assay of the fibrile formation potential of the peptides alone; assay type: physicochemical; details: 2% HFIP, 10 mM tris, pH 7.4
# Description: b) Amyloid fibriles from various protein species bind to the dye ThT and result in an increase in the maximum fluorescence emission of the […]. The ThT binding is therefore a specific test widely used for quantifying amyloid fibriles. This test was used to determine the amyloid formation potential of the analogs compared to IAPP. For this test the analogs and IAPP were incubated at a concentration of 62.5 μm [sic; μM] (2% HFIP, 10 mM tris, pH 7.4). […] aliquots from these incubations were combined with […] of a 5 μM ThT solution (in 0.1 M glycine-NaOH buffer, pH 8.5), mixed, and after excitation at 450 nm the emission from the solution was determined at 485 nm. It was shown that IAPP forms fibriles at a concentration of 625 nM.
# IAPP = molecular target: T2, IAPP (Homo sapiens, UniProt P10997); test: EM-tracked aggregation test of IAPP in 1:1 mixture with analogs; assay type: biochemical; details: IAPP 5 μM alone or 1:1 with analog, 10 mM sodium phosphate pH 7.4, 1% HFIP, 20 h
# T2 construct: Natural human IAPP
# T2 sequence (P10997 34-70 limits assumed): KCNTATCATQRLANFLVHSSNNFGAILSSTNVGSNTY
# Description: In one typical aggregation test tracked by EM, IAPP (5 μM) was incubated alone or in the presence of one of the analogs, in a 1:1 ratio (in 10 mM sodium phosphate buffer, pH 7.4, containing 1% HFIP). After 20 h, 10 μL of the solution was applied to an EM plate, and after dyeing with 1% uranyl acetate as described in Kayed, J. Mol. Biol. (1999) 287, 781-796 was analyzed for the presence of fibriles by means of EM.
# [6] = 10 μM in 10 mM sodium phosphate buffer
Compound,pH values at which the peptide tends to aggregate [1],"onset of aggregation [2, 6]","time after which peptide was completely precipitated [2, 6] [h]",time after which peptide was completely precipitated ([2]; 100 μM in 10 mM sodium phosphate buffer) [h],hormonal activity (AC activation potential) after storage in solution [3],presence of fibriles by EM [4],concentration at which fibriles form [5] [nM],fibrile formation by EM (IAPP)
CC[C@H](C)[C@H](NC(=O)[C@@H]1CCCN1C(=O)CNC(=O)[C@H](Cc1ccccc1)NC(=O)[C@H](CC(N)=O)NC(=O)[C@H](CC(N)=O)NC(=O)[C@H](CO)NC(=O)[C@H](CO)NC(=O)[C@H](Cc1c[nH]cn1)NC(=O)[C@@H](NC(=O)[C@H](CC(C)C)NC(=O)[C@H](Cc1ccccc1)NC(=O)[C@H](CC(N)=O)NC(=O)[C@H](C)NC(=O)[C@H](CC(C)C)NC(=O)[C@H](CCCNC(=N)N)NC(=O)[C@H](CCC(N)=O)NC(=O)[C@@H](NC(=O)[C@H](C)NC(=O)[C@@H]1CSSC[C@H](NC(=O)[C@@H](N)CCCCN)C(=O)N[C@@H](CC(N)=O)C(=O)N[C@@H]([C@@H](C)O)C(=O)N[C@@H](C)C(=O)N[C@@H]([C@@H](C)O)C(=O)N1)[C@@H](C)O)C(C)C)C(=O)N[C@@H](CC(C)C)C(=O)N1CCC[C@H]1C(=O)N1CCC[C@H]1C(=O)N[C@H](C(=O)N[C@@H](CC(N)=O)C(=O)N[C@H](C(=O)NCC(=O)N[C@@H](CO)C(=O)N[C@@H](CC(N)=O)C(=O)N[C@H](C(=O)N[C@@H](Cc1ccc(O)cc1)C(N)=O)[C@@H](C)O)C(C)C)[C@@H](C)O [pramlintide],above 5,,,,,,,
Natural human IAPP (KCNTATCATQRLANFLVHSSNNFGAILSSTNVGSNTY; listed as Homo sapiens) [peptide hormone of 37 amino acids],,began immediately after the solution was prepared,20,2,may lose more than half of its original hormonal activity,composed primarily of IAPP amyloid fibriles,625,composed primarily of IAPP amyloid fibriles
